Among the data in EP0599274A1 are increase in tyrosine phosphorylation of HER4 after 15 minutes incubation values, retold here.

This assay addresses HER4/p180erbB4 (human prototype HER4 polypeptide) (human). Briefly: cell-based or functional assay.

In the case of “recombinant rat neu differentiation factor (NDF) (from UniProt P43322 14-241) (ligand)”, the increase in tyrosine phosphorylation of HER4 after 15 minutes incubation is 2.4 to 4 fold.
